Measurements taken from article PMC7188994.

Target: SspA C314S mutant from Vibrio cyclitrophicus FF75 (Vibrio cyclitrophicus FF75)
Assay: crystal structure; SspA C314S with cysteine substrate and PLP; hanging drop at 14°C, 1.8 M ammonium citrate pH 7.0; space group P6_(3)22, two molecules in each asymmetric unit; 1.80 Å

“SspA C314S mutant from Vibrio cyclitrophicus FF75 (from UniProt A0AAN0N811 1-211) (enzyme)” showed a stoichiometry N of 2.
